According to publication doi:10.64898/2025.12.10.693482, “Mechanism of NanR transcriptional activation of sialic acid metabolism in Streptococcus pneumoniae” (bioRxiv, 2025):
Changes are numbered by the printed parent chain. Numbers in names are those of the source. Where “and” joins values, the source holds several entries; their conditions need not be identical. Equal values may be shown once.

What was measured:
SpNanR D160A (NanR) = molecular target: T1, SpNanR D160A (NanR) (Streptococcus pneumoniae, UniProt A0A4M6CQT5, D160A); test: DSF thermal shift (comparable to wild type) and tetramer stabilization by sedimentation velocity; type: binding
T1 construct: gene ybbH; recombinant SpNanR variant

SpNanR (NanR) = molecular target: T2, SpNanR (NanR) (Streptococcus pneumoniae, UniProt A0A4M6CQT5); test: ITC (n = […]), DSF, crystal structures (8TX9, 8V4V), sedimentation velocity; type: binding
T2 construct: gene ybbH; recombinant, full-length SpNanR

[1] = molecular target: the molecule itself; test: AUC; sedimentation velocity, SpNanR 0.27–153.5 μM, with 2 mM N-acetylmannosamine-6-phosphate, 20 mM Tris-HCl pH 8.0, 300 mM NaCl, 20 °C; tetramer to dimers
[2] = molecular target: the molecule itself; test: SEC-SAXS; small-angle X-ray scattering with in-line size exclusion chromatography, SpNanR without N-acetylmannosamine-6-phosphate
[3] = molecular target: the molecule itself; test: AUC; sedimentation velocity, SpNanR 4.3–227.7 μM, no N-acetylmannosamine-6-phosphate, 20 mM Tris-HCl pH 8.0, 300 mM NaCl, 20 °C; weight-averaged s fitted to a dimer-tetramer self-association model (Sedphat); tetramer to dimers
[4] = molecular target: the molecule itself; test: AUC; sedimentation velocity of SpNanR variants and wild type at the same concentration, without N-acetylmannosamine-6-phosphate (Supplementary Figure 14C–E)
SpNanR T18A = SpNanR T18A (Streptococcus pneumoniae, UniProt A0A4M6CQT5 1-283, T18A); test: MST; up to 5 uM protein; MST: 20 mM Tris-HCl pH 8.0, 300 mM NaCl, 0.05% Tween-20, 20 C, 20 nM FAM-DNA, overnight incubation; AUC: 50 nM FAM-DNA, 0.019-5 uM SpNanR, buffer not given in m; conditions: protein: recombinant; chain copies: 2; label: 5'-6-FAM on sense strand; blunt 18 bp
SpNanR R56A = SpNanR R56A (Streptococcus pneumoniae, UniProt A0A4M6CQT5 1-283, R56A); test: as above; conditions: protein: recombinant; chain copies: 2; label: 5'-6-FAM on sense strand; blunt 18 bp
SpNanR R67A = SpNanR R67A (Streptococcus pneumoniae, UniProt A0A4M6CQT5 1-283, R67A); test: as above; conditions: protein: recombinant; chain copies: 2; label: 5'-6-FAM on sense strand; blunt 18 bp

T1 sequence (A0A4M6CQT5 whole entry D160A): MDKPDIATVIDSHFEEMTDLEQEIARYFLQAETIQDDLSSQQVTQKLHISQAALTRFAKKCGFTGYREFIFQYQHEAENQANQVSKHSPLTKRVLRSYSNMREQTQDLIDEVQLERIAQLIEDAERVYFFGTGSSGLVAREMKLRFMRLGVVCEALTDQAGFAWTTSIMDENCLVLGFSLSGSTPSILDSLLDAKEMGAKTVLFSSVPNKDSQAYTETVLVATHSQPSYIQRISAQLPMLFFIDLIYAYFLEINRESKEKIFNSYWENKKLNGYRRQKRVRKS
T2 sequence (A0A4M6CQT5 entry or part of it): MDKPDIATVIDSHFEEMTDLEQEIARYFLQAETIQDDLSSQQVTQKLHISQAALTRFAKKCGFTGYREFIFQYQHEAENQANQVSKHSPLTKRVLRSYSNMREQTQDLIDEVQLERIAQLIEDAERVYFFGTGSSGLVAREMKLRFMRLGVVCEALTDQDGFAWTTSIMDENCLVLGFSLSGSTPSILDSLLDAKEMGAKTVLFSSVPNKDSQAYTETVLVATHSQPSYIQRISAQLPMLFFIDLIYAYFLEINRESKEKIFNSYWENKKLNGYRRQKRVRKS

`CC(=O)N[C@@H]1C(O)O[C@H](COP(=O)(O)O)[C@@H](O)[C@@H]1O` (stereo partly shown) [manNAc-6-P, N-acetylmannosamine-6-phosphate] was tested. Which “DSF thermal shift (comparable to wild type) and tetramer stabilization by sedime” value (SpNanR D160A (NanR)) did it give?
The value was “it still binds N-acetylmannosamine-6-phosphate and that this sufficiently stabilizes the tetrameric form”.

And the Kd (SpNanR (NanR))?
The Kd was 20.4 ± 6 µM.

B1: Streptococcus pneumoniae NanR (SpNanR), wild type (natural protein, UniProt A0ACD7PT65 1-283, looked up)
chain: MDKPDIATIIDSHFEEMTDLEQEIARYFLQAETITDDLSSQQVTQKLHISQAALTRFAKKCGFTGYREFIFQYQHQAENQANQVSKHSPLTKRVLRSYSNMREQTQDLIDEIQLERIAQLIEDAERIYFFGTGSSGLVAREMKLRFMRLGVVCEALTDQDGFAWTTSIMDENCLVLGFSLSGSTPSILDSLLDAKEMGAKTVLFTSVPNKNSQTYTETVLVATHSQPSYIQRISAQLPMLFFIDLIYAYFLEINRESKEKIFNSYWENKKLNGYRRQKRVRKS
notes: NanR, RpiR family transcriptional regulator of Streptococcus pneumoniae; recombinant full-length protein; intact mass 32,611 Da; Cloned into pET30ΔSE; Exists in a dimer-tetramer equilibrium; also called SpNanR^WT
B1 was tested. Which Kd [1] did it give?
The Kd was < 0.2 µM.

What about the “stoichiometry N” value [2] of the same molecule?
Its value is 4 and 2.

And the Kd [3]?
The Kd was 97 µM.

B2: SpNanR^D160A (natural protein)
chain: B1 chain with D160A
notes: NanR of Streptococcus pneumoniae (WP_000360349.1) with the substitution D160A; Variant of m1; source: E. coli BL21(DE3), purified
Which “stoichiometry N” value [4] does the source give for B2 here?
The value was 2.

B3: SpNanR^R148A (natural protein)
chain: B1 chain with R148A
notes: NanR of Streptococcus pneumoniae (WP_000360349.1) with the substitution R148A; Variant of m1; source: E. coli BL21(DE3), purified
B3 was tested. Which “stoichiometry N” value [4] did it give?
The value was 2.

B4: nanE recognition sequence, FAM-labeled (dsDNA)
DNA 1: TCTGAAAGTACTTTTAGA
DNA 2: TCTAAAAGTACTTTCAGA
What does the source list for B4?
binding result (SpNanR T18A): no binding; binding result (SpNanR R56A): no binding; binding result (SpNanR R67A): no binding
